Experiments:
FGFR1 = FGFR1 (UniProt P11362); experiment: phosphorylation enrichment, bacterial display (enrichment ratio); higher = better substrate or ligand; peptides without Tyr show the background
c-Abl (mouse) = experiment: as above
FGFR3 = FGFR3 (UniProt P22607); experiment: as above
EPHB2 = EPHB2 (UniProt P29323); experiment: as above
Fer (mouse) = experiment: as above
c-Src = experiment: as above
AncSZ = experiment: as above
EPHB1 = EPHB1 (UniProt P54762); experiment: as above
Hck = Hck (UniProt P08631); experiment: as above
MERTK = MERTK (UniProt Q12866); experiment: as above
Fyn = Fyn (UniProt P06241); experiment: as above
Fes = Fes (UniProt P07332); experiment: as above
Jak2 = Jak2 (UniProt O60674); experiment: as above
SHP2-C SH2 = experiment: SH2 binding enrichment of the phosphorylated peptide, bacterial display (enrichment ratio); higher = better substrate or ligand; peptides without Tyr show the background
Grb2 SH2 = Grb2 SH2 (UniProt P62993); experiment: as above
c-Src SH2 = experiment: as above
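For SH2 binding enrichment of the phosphorylated peptide, bacterial display in this document: peptide library displayed on the E. coli surface as eCPX fusions, selected cells deep-sequenced, score is each peptide's frequency after selection divided by its frequency in the input.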
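For phosphorylation enrichment, bacterial display in this document: 11-residue human phosphosite peptides and single-mutation variants displayed on the E. coli surface, counted by deep sequencing, each peptide's frequency after selection divided by its frequency in the unselected input library; frequency after pTyr selection over input frequency; kinase dosed for 20-30% of maximal phosphorylation in three min.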

Fyn, sequence (P06241 whole entry, looked up): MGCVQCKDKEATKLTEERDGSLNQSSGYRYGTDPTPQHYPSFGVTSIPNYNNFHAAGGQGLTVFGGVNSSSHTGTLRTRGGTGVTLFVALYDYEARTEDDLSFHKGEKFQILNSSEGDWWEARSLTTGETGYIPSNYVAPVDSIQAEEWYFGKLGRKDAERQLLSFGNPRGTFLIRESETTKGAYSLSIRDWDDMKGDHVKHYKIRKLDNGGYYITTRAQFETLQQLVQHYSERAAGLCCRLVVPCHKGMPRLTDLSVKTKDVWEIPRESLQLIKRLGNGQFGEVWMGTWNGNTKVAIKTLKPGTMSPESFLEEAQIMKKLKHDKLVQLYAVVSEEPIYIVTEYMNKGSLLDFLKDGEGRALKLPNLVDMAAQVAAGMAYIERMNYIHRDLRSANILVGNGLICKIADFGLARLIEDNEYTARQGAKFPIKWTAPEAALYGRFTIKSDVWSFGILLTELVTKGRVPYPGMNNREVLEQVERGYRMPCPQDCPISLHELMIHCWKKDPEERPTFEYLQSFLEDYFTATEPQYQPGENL
FGFR1, sequence (P11362 whole entry, looked up): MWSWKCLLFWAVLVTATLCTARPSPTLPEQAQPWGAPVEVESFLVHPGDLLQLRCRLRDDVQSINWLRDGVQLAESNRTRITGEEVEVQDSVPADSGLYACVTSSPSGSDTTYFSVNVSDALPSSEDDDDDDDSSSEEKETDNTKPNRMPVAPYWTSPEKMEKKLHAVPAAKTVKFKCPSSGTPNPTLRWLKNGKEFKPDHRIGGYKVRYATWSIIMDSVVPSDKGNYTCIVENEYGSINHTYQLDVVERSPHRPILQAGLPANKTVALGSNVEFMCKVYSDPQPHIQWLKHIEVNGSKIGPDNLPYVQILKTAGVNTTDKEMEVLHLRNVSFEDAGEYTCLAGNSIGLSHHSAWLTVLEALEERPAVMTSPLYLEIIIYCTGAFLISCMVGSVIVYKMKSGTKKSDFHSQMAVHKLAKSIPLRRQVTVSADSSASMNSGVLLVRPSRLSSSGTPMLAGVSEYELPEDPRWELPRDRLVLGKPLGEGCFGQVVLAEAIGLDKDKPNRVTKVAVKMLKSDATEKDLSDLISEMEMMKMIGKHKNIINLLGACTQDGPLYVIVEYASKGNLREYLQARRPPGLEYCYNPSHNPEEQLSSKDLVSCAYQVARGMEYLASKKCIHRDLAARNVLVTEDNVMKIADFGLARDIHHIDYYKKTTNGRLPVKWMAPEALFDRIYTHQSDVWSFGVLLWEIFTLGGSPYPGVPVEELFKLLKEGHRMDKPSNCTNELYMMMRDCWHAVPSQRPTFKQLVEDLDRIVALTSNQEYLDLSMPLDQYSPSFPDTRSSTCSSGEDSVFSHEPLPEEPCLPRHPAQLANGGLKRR
Jak2, sequence (O60674 whole entry, looked up): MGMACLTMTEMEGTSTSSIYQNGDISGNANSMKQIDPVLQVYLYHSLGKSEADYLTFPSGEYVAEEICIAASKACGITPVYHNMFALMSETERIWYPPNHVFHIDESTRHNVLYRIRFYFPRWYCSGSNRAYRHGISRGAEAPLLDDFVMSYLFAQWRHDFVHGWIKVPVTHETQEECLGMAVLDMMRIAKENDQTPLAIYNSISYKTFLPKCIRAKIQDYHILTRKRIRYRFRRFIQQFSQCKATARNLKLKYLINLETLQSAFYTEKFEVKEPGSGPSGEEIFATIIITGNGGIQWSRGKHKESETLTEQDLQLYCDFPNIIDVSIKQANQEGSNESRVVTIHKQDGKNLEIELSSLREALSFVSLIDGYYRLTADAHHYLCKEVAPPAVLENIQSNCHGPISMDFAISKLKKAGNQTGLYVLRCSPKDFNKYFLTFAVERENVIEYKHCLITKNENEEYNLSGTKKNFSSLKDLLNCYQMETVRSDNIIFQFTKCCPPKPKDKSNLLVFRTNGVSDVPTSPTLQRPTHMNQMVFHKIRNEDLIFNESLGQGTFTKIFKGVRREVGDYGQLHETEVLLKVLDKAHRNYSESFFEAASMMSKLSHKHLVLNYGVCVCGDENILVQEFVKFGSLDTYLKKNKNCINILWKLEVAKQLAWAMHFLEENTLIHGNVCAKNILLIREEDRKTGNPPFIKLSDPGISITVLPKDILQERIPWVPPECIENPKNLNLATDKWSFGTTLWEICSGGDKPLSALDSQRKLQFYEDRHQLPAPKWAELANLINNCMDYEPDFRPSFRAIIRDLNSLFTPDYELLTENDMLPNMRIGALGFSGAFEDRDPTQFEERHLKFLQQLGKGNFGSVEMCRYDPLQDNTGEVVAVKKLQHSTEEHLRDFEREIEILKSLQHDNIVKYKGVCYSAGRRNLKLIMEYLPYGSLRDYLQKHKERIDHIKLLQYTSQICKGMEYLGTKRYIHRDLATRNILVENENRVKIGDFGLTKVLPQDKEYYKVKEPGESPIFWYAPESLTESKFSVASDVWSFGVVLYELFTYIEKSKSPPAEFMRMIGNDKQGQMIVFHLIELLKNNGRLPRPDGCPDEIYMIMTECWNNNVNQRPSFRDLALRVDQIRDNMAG
Fes, sequence (P07332 whole entry, looked up): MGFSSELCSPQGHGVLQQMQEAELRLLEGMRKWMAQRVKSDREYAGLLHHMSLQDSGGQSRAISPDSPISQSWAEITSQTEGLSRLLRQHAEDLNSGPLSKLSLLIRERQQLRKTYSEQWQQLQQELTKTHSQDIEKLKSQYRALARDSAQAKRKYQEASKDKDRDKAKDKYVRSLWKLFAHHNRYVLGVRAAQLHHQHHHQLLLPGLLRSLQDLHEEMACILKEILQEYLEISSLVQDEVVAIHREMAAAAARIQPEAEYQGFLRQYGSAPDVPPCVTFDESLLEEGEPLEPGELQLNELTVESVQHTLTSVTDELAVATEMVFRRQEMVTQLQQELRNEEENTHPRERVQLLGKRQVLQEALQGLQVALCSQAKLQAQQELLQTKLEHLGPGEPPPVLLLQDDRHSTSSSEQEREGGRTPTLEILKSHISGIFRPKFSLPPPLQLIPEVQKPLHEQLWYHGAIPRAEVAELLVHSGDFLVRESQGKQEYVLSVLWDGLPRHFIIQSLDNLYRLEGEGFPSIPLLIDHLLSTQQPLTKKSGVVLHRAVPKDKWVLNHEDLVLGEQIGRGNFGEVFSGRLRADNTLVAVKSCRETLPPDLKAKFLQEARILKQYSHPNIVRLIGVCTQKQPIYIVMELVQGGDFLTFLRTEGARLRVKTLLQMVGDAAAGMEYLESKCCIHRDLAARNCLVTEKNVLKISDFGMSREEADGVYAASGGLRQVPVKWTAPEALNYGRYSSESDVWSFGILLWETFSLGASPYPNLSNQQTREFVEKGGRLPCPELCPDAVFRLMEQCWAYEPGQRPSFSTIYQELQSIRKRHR
FGFR3, sequence (P22607 whole entry, looked up): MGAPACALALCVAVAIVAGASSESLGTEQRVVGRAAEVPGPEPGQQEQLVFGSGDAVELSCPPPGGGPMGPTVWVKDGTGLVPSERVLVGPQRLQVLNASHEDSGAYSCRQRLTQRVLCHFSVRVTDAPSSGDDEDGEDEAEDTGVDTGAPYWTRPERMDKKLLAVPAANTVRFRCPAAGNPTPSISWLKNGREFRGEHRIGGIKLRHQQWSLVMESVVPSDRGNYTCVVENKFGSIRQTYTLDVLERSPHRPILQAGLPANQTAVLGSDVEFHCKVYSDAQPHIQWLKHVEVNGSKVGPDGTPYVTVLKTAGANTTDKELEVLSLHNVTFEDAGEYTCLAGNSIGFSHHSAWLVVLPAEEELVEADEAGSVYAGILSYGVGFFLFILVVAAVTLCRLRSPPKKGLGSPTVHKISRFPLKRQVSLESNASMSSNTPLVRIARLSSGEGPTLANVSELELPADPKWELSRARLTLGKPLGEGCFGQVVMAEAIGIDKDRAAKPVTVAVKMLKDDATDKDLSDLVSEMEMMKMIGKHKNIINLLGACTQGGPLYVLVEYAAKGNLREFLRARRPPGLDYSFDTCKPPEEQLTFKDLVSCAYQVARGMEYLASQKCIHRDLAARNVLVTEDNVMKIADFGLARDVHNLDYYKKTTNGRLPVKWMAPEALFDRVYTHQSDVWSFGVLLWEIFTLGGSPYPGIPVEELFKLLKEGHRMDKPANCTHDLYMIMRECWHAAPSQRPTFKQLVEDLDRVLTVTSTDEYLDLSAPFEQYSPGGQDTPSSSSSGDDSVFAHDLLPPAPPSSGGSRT
Hck, sequence (P08631 whole entry, looked up): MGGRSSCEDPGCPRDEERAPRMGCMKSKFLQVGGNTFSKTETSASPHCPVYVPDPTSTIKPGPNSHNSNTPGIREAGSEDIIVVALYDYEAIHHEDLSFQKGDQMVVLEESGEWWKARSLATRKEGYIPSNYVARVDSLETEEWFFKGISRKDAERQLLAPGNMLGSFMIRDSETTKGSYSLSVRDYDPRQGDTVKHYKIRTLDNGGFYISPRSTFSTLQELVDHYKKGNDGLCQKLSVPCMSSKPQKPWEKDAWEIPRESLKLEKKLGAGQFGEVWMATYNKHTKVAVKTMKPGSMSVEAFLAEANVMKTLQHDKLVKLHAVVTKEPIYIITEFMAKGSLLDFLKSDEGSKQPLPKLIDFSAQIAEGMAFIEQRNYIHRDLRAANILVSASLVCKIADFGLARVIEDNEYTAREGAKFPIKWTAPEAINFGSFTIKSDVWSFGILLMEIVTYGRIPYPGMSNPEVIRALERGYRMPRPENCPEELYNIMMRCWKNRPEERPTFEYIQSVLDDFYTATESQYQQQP
Grb2 SH2, sequence (P62993 whole entry, looked up): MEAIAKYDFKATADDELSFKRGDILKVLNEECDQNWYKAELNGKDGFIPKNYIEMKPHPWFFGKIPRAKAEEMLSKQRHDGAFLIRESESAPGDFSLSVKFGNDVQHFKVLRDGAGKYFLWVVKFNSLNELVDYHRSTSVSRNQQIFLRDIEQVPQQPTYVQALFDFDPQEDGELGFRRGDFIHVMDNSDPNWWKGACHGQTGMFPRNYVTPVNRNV

Sequence	phosphorylation enrichment (FGFR1)	phosphorylation enrichment (c-Abl (mouse))	phosphorylation enrichment (FGFR3)	phosphorylation enrichment (EPHB2)	phosphorylation enrichment (Fer (mouse))	phosphorylation enrichment (c-Src)	phosphorylation enrichment (AncSZ)	phosphorylation enrichment (EPHB1)	phosphorylation enrichment (Hck)	phosphorylation enrichment (MERTK)	phosphorylation enrichment (Fyn)	phosphorylation enrichment (Fes)	phosphorylation enrichment (Jak2)	SH2 binding enrichment (SHP2-C SH2)	SH2 binding enrichment (Grb2 SH2)	SH2 binding enrichment (c-Src SH2)
AAETTYDKILK [GDNF_Y156]	0.467	0.521	0.725	0.496	0.474	0.501	0.886	0.555	1.36	0.376	0.596	1.09	0.888	1.28	0.708	3.75
ADSLRYIYPKL [EIF2B3_Y92]	0.354	0.471	0.463	0.362	0.339	0.472	0.552	0.416	0.386	0.43	0.332	0.602	0.634	1.89	1.05	12.5
YQNGMYGLHQD [SGSH_Y89_H84Y]	0.605	0.748	0.631	0.687	0.55	0.957	0.874	0.487	1	0.566	0.751	0.808	0.712	0.585	5.48	1.11
KLPDAYEPLIL [G6PD_Y437_R439P]	0.53	0.79	0.674	0.494	2.5	0.752	1.14	0.55	1.08	0.498	0.502	1.1	0.921	0.917	0.964	1.49
QRRNVYYYSYL [PTEN_Y176_Y174N]	16.4	1.15	11.6	3.05	2.77	8.15	1.72	5.79	7.54	16	9.83	1.41	8.42	1.27	0.955	1.58
KKGIVYIFNGR [ITGAV_Y404]	0.417	0.565	0.501	0.507	0.437	0.366	0.768	0.403	0.423	0.428	0.452	0.957	0.868	1.61	2.3	1.86
SFLFHYADDSF [RAB3C_Y50_R49H]	0.438	0.718	0.671	0.549	0.465	0.466	0.905	0.498	0.399	0.412	0.476	1.12	0.958	1.08	1.09	1.55
FIIFIYAMKKK [SLCO1B1_Y645_L643F_YF]	0.461	1.52	0.578	0.541	0.72	1.65	1.42	0.709	1.45	1.09	0.848	1.23	2.04	1.4	0.884	0.758
